The values that follow come from publication doi:10.1101/2025.08.05.668778 (bioRxiv, 2025).

The series “crystal structure” deals with the molecule itself. Nature of the series: crystal structure.
Another series has as its target T1, factor H (intact) (human, UniProt P08603 19-1231).
T1 construct: also called FH; intact FH; source: bought: Complement Technology
Nature of the series: ELISA; M, Enn or FbaA protein coated on wells (20 μg/ml in PBS pH 7.2, overnight 4 °C); soluble intact factor H 10 μg/ml, 1 h, RT; bound FH detected with mouse monoclonal anti-human FH and HRP anti-mouse IgG; uncoated wells subtracted; values normalized to wild type. The settings on record: both partners purified. Background: ELISA stands for enzyme-linked immunosorbent assay.

The stoichiometry N is a count of units in the complex or per binding partner.

T1 sequence (P08603 19-1231): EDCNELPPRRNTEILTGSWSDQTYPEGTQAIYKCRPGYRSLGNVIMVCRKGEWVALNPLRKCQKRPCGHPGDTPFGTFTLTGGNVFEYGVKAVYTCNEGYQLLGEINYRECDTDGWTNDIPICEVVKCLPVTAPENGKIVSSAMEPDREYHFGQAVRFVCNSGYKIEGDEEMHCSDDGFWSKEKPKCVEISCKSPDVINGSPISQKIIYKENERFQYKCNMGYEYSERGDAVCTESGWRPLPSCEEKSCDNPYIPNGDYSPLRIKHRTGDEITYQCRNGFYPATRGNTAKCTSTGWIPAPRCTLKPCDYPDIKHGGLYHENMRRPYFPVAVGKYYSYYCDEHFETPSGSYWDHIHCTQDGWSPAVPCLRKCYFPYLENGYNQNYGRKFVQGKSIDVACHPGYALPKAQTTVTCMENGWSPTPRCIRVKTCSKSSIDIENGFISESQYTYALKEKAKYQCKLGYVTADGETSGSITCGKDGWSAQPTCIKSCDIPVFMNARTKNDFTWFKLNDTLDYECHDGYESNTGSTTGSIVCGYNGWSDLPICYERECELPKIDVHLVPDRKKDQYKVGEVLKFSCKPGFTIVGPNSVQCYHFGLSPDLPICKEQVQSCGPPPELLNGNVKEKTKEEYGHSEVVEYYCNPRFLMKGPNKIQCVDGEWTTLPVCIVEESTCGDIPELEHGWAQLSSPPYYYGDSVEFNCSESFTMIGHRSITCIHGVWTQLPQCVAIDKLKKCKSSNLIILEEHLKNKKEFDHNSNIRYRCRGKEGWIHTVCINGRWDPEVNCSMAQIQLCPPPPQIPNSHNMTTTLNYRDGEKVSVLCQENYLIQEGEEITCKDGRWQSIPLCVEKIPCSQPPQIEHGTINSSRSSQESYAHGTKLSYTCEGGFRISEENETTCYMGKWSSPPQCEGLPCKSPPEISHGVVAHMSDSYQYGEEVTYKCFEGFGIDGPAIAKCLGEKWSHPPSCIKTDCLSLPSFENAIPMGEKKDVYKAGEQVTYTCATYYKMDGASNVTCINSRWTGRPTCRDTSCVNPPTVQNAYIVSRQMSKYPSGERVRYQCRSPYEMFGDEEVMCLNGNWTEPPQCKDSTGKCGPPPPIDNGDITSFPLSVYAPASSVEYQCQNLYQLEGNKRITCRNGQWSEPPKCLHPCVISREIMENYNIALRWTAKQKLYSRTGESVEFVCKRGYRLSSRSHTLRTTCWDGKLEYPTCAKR

B1: M5 protein fragment (aa 94–175) (domain or fragment)
chain: NEGLKTEKKEHEAENDKLKQQRDTLSTQKETLEREVQNTQYNNETLKIKNGDLTKELNKTRQELANKQQESKENEKALNELL
notes: source: E. coli BL21 (Gold), purified
In the case of B1, the “stoichiometry N” value in “crystal structure” was 2.

B2: M6 protein, intact wild type (aa 43–452) (natural protein)
chain: RVFPRGTVENPDKARELLNKYDVENSMLQANNDKLTTENNNLTDQNKNLTTENKNLTDQNKNLTTENKNLTDQNKNLTTENKELKAEENRLTTENKGLTKKLSEAEEEAANKERENKEAIGTLKKTLDETVKDKIAKEQESKETIGTLKKTLDETVKDKIAKEQESKETIGTLKKTLDETVKDKIAKEQESKETIGTLKKILDETVKDKIAREQKSKQDIGALKQELAKKDEGNKVSEASRKGLRRDLDASREAKKQVEKDLANLTAELDKVKEEKQISDASRQGLRRDLDASREAKKQVEKALEEANSKLAALEKLNKELEESKKLTEKEKAELQAKLEAEAKALKEQLAKQAEELAKLRAGKASDSQTPDAKPGNKVVPGKGQAPQAGTKPNQNKAPMKETKRQLPST
notes: source: E. coli BL21 (Gold), purified; not shown: His6, C-terminal, kept
In the case of B2, the binding result in the series with factor H (intact) is recorded as “binds”.

B3: M5 protein, intact wild type (aa 43–377) (natural protein)
chain: AVTRGTINDPQRAKEALDKYELENHDLKTKNEGLKTENEGLKTENEGLKTENEGLKTEKKEHEAENDKLKQQRDTLSTQKETLEREVQNTQYNNETLKIKNGDLTKELNKTRQELANKQQESKENEKALNELLEKTVKDKIAKEQENKETIGTLKKILDETVKDKIAKEQENKETIGTLKKILDETVKDKLAKEQKSKQNIGALKQELAKKDEANKISDASRKGLRRDLDASREAKKQLEAEHQKLEEQNKISEASRKGLRRDLDASREAKKQLEAEQQKLEEQNKISEASRKGLRRDLDASREAKKQVEKALEEANSKLAALEKLNKELEESKK
notes: as for B2
For B3, in the series with factor H (intact), the binding result is given as “binds”.

B4: FbaA (57–130), wild type (domain or fragment)
chain: NWHHIDKDGLIPLGISLEAAKEEFKKEVEESRLSEAQKETYKQKIKTAPDKDKLLFTYHSEYMTAVKDLPASTE
notes: source: E. coli BL21 (Gold), purified; not shown: His6, N-terminal, kept
Turning to B4, the binding result with factor H (intact) was “binds”.

B5: M6 protein fragment (aa 74–157) (domain or fragment)
chain: NDKLTTENNNLTDQNKNLTTENKNLTDQNKNLTTENKNLTDQNKNLTTENKELKAEENRLTTENKGLTKKLSEAEEEAANKERE
notes: as for B1
B5: the “stoichiometry N” value in “crystal structure” is 2.
